T1: 重组蛋白BontB(B型肉毒毒素轻链) (肉毒梭菌 (Clostridium botulinum), UniProt P10844 1-441)
T1 sequence: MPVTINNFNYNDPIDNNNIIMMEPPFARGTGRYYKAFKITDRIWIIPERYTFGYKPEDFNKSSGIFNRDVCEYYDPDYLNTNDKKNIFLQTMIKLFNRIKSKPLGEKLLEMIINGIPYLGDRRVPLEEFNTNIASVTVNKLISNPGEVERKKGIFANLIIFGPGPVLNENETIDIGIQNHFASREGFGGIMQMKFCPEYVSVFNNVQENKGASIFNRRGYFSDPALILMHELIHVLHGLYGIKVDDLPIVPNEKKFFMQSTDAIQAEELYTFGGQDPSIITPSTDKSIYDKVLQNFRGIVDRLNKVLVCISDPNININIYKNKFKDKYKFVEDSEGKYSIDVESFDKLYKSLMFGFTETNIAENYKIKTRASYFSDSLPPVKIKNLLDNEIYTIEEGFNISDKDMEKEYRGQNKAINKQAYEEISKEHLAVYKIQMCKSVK

B1: 抗B型肉毒毒素酶活性的人源单链抗体2F-scFv (scFv)
scFv: EVQLLESGGGLVQPGGSLRLSCAASGFTFSSYAMSWVRQAPGKGLEWVSSIASTGSNTAYADSVKGRFTISRNNSKNTLYLQMNSLRAEDTAVYYCAKGTGTFDYWGQGTLVTVSSGGGGSGGGGSGGGGSTDIQMTQSPSSLSASVGDRVTITCRASQSISSYLNWYQQKPGKAPKLLIYTASYLQSGVPSRFSGSGSGTDFTLTISSLQPEDFATYYCQQATTSPYTFGQGTKVEIKRAAAHHHHHHGAEQKLISEEDLNGAA
B2: 3A-scFv (scFv)
scFv: EVQLLESGGGLVQPGGSLRLSCAASGFTFSSYAMSWVRQAPGKGLEWVSNISSNGNATAYADSVKGRFTISRNNSKNTLYLQMNSLRAEDTAVYYCAKYTYAFDYWGQGTLVTVSSGGGGSGGGGSGGGGSTDIQMTQSPSSLSASVGDRVTITCRASQSISSYLNWYQQKPGKAPKLLIYYASNLQSGVPSRFSGSGSGTDFTLTISSLQPEDFATYYCQQDSYTPSTFGQGTKVEIKRAAAHHHHHHGAAEQKLISEEDLNGAA
B3: 4C-scFv (scFv)
scFv: EVQLLESGGGLVQPGGSLRLSCAASGFTFSSYAMSWVRQAPGKGLEWVSGISPMGTRTSYADSVKGRFTISRDNSKNTLYLQMNSLRAEDTAVYYCAKNANGFDYWGQGTLVTVSSGGGGSGGGGSGGGGSTDIQMTQSPSSLSASVGDRVTITCRASQSISSYLNWYQQKPGKAPKLLIYRASVLQSGVPSRFSGSGSGETDFTLTISSLQPEDFATYYCQQRSRPPITFGQGTKVEIKRAAAHHHHHHGAAEQKLISEEDLNGAA

This experiment concerns the target T1, 重组蛋白BontB(B型肉毒毒素轻链).
The molecule B1 had a Ka of 1.15e+06 M⁻¹. To B2 belongs 535000 M⁻¹; to B3, 438000 M⁻¹.

The values above are taken from patent publication CN104892754A (INST OF MILITARY VETERINARY ACADEMY OF MILITARY MEDICAL …, dated 2015).
